Tests used:
[1] = target: T1, urokinase plasminogen activator receptor (uPAR) (Homo sapiens, UniProt Q03405); assay: Binding of individual phage clones to Sf9 cells expressing fluPAR (% recovery); conditions: for % Recovery uPAR: phage clone displaying the peptide, Sf9 cells expressing full length uPAR (fluPAR); for Specificity (uPAR/SPR): ratio of % recovery on uPAR Sf9 cells to % recovery on SPR Sf9 cells
T1 construct: 10^6 Sf9 cells expressing full length uPAR ("fluPAR", day 2 post infection); expressed in transfected cells; host or cells: Sf9 insect cells (baculovirus-infected)
Method: (§1) 1.) 15mer phage (2.5×10^10) prepared as described above were selected by coincubation with 10^6 Sf9 cells expressing full length uPAR ("fluPAR", day 2 post infection) at room temperature for 60 minutes in Grace's medium with 2% nonfat milk. Binding phage were eluted with 6M urea (pH 2.2), the pH neutralized by adding 2M Tris-HCl, and assayed. The yield of binding phage was 0.0013% (3.3×10^5 pfu). The phage were amplified on solid agar plates as plaques, eluted with Tris-buffered saline, and precipitated with polyethylene glycol.
(§2) 3.) The phage selected in round 2 were reselected on Sf9 cells expressing fluPAR (day 2 post-infection) as described for round 1 (2.8×10^10 phage on 10^6 Sf9 cells). The yield of binding phage from this round was 5.40% (1.5×10^9 pfu), indicating a substantial enrichment in binding phage. Phage from the urea eluate were cloned, and the DNA isolated and sequenced. Binding by individual phage clones was assayed against Sf9 cells expressing fluPAR, and Sf9 cells expressing substance P receptor (as a control).

substance P receptor = target: T2, substance P receptor (Homo sapiens, UniProt P25103); assay: Binding of individual phage clones to Sf9 cells expressing substance P receptor (control); conditions: phage clone displaying the peptide
T2 construct: expressed in transfected cells; host or cells: Sf9 insect cells
Method: as §1, §2

T2 sequence (P25103 whole entry, species assumed): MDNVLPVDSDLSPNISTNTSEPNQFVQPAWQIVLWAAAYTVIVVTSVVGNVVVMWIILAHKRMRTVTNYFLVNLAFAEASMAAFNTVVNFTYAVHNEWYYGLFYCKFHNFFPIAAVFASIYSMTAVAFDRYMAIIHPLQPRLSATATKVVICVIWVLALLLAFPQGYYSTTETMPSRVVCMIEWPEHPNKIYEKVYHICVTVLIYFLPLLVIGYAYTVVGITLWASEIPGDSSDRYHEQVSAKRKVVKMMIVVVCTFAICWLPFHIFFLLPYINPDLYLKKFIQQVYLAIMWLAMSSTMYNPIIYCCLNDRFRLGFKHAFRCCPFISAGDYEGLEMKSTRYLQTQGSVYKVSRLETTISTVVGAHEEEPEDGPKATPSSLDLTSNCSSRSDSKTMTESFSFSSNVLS
T1 sequence (Q03405 23-335, species assumed): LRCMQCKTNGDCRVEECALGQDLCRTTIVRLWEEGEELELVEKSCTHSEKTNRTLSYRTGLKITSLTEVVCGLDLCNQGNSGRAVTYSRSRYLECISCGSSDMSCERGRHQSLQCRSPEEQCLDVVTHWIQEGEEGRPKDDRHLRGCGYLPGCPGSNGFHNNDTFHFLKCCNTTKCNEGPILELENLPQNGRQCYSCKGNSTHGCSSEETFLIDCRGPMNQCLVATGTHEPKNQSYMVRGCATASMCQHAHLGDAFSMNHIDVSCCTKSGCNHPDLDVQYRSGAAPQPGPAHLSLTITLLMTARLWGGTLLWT

Sequence	% Recovery uPAR [1]	Specificity (uPAR/SPR) [1]	% Recovery SPR (substance P receptor)
AESSLWTRYAWPSMPSY (displayed on phage)	12.1%	47	0.260%
AEMHRSLWEWYVPNQSA (displayed on phage)	4.2%	105	0.040%
AEPALLNWSFFFNPGLH (displayed on phage)	4.7%	47	0.100%
AESSLWRIFSPSALMMS (displayed on phage)	3.5%	50	0.070%
AEPLDLWSLYSLPPLAM (displayed on phage)	6.0%	63	0.095%
AESLPTLTSILWGKESV (displayed on phage)	0.5%	23	0.022%
AEPMPHSLNFSQYLWYT (displayed on phage)	2.2%	28	0.080%
AESQTGTLNTLFWNTLR (displayed on phage)	2.8%	350	0.008%
AECLNGGTAVSNKYFSNIHWCN (displayed on phage) [reference compound]	6.8%	850	0.008%
AEWHPGLSFGSYLWSKT (displayed on phage)	5.7%	168	0.034%
